From patent US20090253131A1, “HYBRID FUSION REPORTER AND USES THEREOF” (Promega Corporation, priority 2007, published 2009)
Changes are numbered by the printed parent chain. Numbers in names are those of the source.

B1: H11YL: second generation DhaA.H272F mutant, H11 recombined with Y273L (SEQ ID NO:3) (protein)
chain: SEIGTGFPFDPHYVEVLGERMHYVDVGPRDGTPVLFLHGNPTSSYLWRNIIPHVAPSHRCIAPDLIGMGKSDKPDLDYFFDDHVRYLDAFIEALGLEEVVLVIHDWGSALGFHWAKRNPERVKGIACMEFIRPIPTWDEWPEFARETFQAFRTADVGRELIIDQNAFIEGALPMGVVRPLTEVEMDHYREPFLKPVDREPLWRFPNELPIAGEPANIVALVEAYMNWLHQSPVPKLLFWGTPGVLIPPAEAARLAESLPNCKTVDIGPGLFLLQEDNPDLIGSEIARWLPAL
modifications: A synthetic mutant dehalogenase sequence
B2: DhaA.D106C: DhaA with Asp106 replaced by Cys (protein, UniProt P0A3G2 1-293, looked up, variant D106C)
Haloalkane dehalogenase: MSEIGTGFPFDPHYVEVLGERMHYVDVGPRDGTPVLFLHGNPTSSYLWRNIIPHVAPSHRCIAPDLIGMGKSDKPDLDYFFDDHVRYLDAFIEALGLEEVVLVIHCWGSALGFHWAKRNPERVKGIACMEFIRPIPTWDEWPEFARETFQAFRTADVGRELIIDQNAFIEGALPKCVVRPLTEVEMDHYREPFLKPVDREPLWRFPNELPIAGEPANIVALVEAYMNWLHQSPVPKLLFWGTPGVLIPPAEAARLAESLPNCKTVDIGPGLHYLQEDNPDLIGSEIARWLPAL
B3: DhaA.D106E: DhaA single mutant D106E (protein, UniProt P0A3G2 1-293, looked up, variant D106E)
Haloalkane dehalogenase: B2 Haloalkane dehalogenase with C106E
B4: DhaA.D106C:H272F: DhaA double mutant D106C and H272F (protein, UniProt P0A3G2 1-293, looked up, variant D106C H272F)
Haloalkane dehalogenase: B2 Haloalkane dehalogenase with H272F
B5: DhaA.H272F: Rhodococcus rhodochrous dehalogenase DhaA with His272 replaced by Phe (protein, UniProt P0A3G2 1-293, looked up, variant H272F)
Haloalkane dehalogenase: B2 Haloalkane dehalogenase with C106D, H272F
B6: YM: DhaA.H272F based mutant Y273M (protein, UniProt P0A3G2 1-293, looked up, variant H272F Y273M)
Haloalkane dehalogenase: B2 Haloalkane dehalogenase with C106D, H272F, Y273M
B7: YL: DhaA.H272F based mutant Y273L (protein, UniProt P0A3G2 1-293, looked up, variant H272F Y273L)
Haloalkane dehalogenase: B2 Haloalkane dehalogenase with C106D, H272F, Y273L
B8: YC: DhaA.H272F based mutant Y273C (protein, UniProt P0A3G2 1-293, looked up, variant H272F Y273C)
Haloalkane dehalogenase: B2 Haloalkane dehalogenase with C106D, H272F, Y273C

Legend:
[1] = Kinetic labeling studies of purified DhaA mutants, fluorimage gel analysis; type: biochemical; conditions: fluorimaged gel, 10 ng protein, refined time-course
Method: Preliminary kinetic labeling studies were performed using several DhaA.H272F derived mutants. […] A more expanded time course analysis was performed on the DhaA.H272F A7 and the two second generation DhaA.H272F mutants A7YM and H11YL. […] The fluorescent bands on gel were quantitated and the relative rates of product formation determined. In order to determine a labeling rate, the concentration of the H11YL was reduced from 50 ng to 10 ng and a more refined time-course was performed. Under these labeling conditions a linear initial rate could be measured. Quantitation of the fluorimaged gel data allowed second order rate constants to be calculated.

[2] = Fluorescence polarization (FP) labeling kinetics of purified DhaA mutants, TMR substrate; type: biochemical
From the text: (§1) Fluorescence polarization (FP) is ideal for the study of small fluorescent ligands binding to proteins. It is unique among methods used to analyze molecular binding because it gives direct nearly instantaneous measure of a substrate bound/free ratio. Therefore, an FP assay was developed as an alternative approach to fluorimage gel analysis of the purified DhaA mutants.
(§2) Based on the sensitivity and truly homogenous nature of this assay, FP was used to characterize the labeling properties of the purified DhaA mutants with the fluorescently coupled substrates. The data from these studies was then used to calculate a second order rate constant for each DhaA mutant-substrate pair.

CHO cells = test: Protein complementation labeling (PCL) with HT2 in transiently transfected CHO cells; type: cell-based; conditions: +/−1 μM rapamycin 2.5 hours, 1.0 μM HaloTag TMR ligand 1 hour
Method: For transient transfections, CHO cells were plated in a 6 well plate and transfected in duplicate using TransIT®-CHO. The next day, cells were incubated +/−1 μM rapamycin for 2.5 hours followed by 1.0 μM HaloTag® TMR ligand for 1 hour. Cells were washed in PBS, trypsinized, pelleted and mechanically lysed in 200 ul PBS with protease inhibitor and RQDNase I. Normalized amounts of proteins were microwaved for 30 seconds on high and run on a denaturing NuPAGE® gel.

[3] = FP
From the text: as §1, §2

[4] = target: T1, rapamycin-mediated FRB/FKBP protein-protein interaction (Homo sapiens, UniProt P42345+P62942); test: Protein complementation labeling (PCL) in vitro with HT2 fragments, rapamycin-mediated FRB/FKBP; type: biochemical; conditions: with or without 1 μM rapamycin, 0.1 μM TMR ligand 2 hours
T1 construct: made in house; host or cells: cell-free: RiboMax transcription, Wheat Germ Plus translation
Method: The rapamycin-mediated FRB/FKBP protein-protein interaction and a mutant DhaA were employed in a PCL. FRB and FKBP will only interact when rapamycin is present. Therefore, if PCL is successful, the reconstituted reporter is labeled only when the fusion proteins are incubated together in the presence of rapamycin.
Two pF9 (Kan) vectors were generated which contained either FRB or FKBP ORF plus the linker sequence (GlyGlyGlyGlySer)2 upstream of the SgfI/PmeI sites. A mutant DhaA gene (HT2) at positions corresponding to those useful to prepare Renilla luciferase fragments for PCS (see Example 2 and FIG. 7) with FRB-N-terminal and FKBP-C-terminal fusions. HT2 N- and C-termini halves were amplified using PCR primers and cloned into the SgfI/PmeI sites. PCL was performed in vitro by expressing each clone individually using RiboMax followed by Wheat Germ Plus reactions (HT2). Protein was expressed with or without FluoroTect™. FluoroTect™ labeling ensured that all proteins were expressed in approximately equal amounts (data not shown). Unlabeled proteins were then incubated alone or with the appropriated partner with or without 1 μM rapamycin. Ten μl of these products were then incubated with 0.1 μM of a TMR labeled ligand for the mutant dehalogenase, for 2 hours in the dark. […]

[5] = Binding of DhaA mutants to carboxytetramethylrhodamine chloroalkane substrate
Method: DhaA.H272 mutants, i.e. H272F/G/A/Q, bound to carboxytetramethylrhodamine-C10H21NO2—Cl.
A control mutant, DhaA.D106Q, single mutants DhaA.D106C, DhaA.D106Y, and DhaA.D106E, as well as double mutants DhaA.D106C:H272F, DhaA.D106E:H272F, DhaA.D106Q:H272F, and DhaA.D106Y:H272F were analyzed for binding to carboxytetramethylrhodamine-C10H21NO2—Cl. Carboxytetramethylrhodamine-C10H21NO2—Cl bound to DhaA.D106C, DhaA.D106C:H272F, DhaA.D106E, and DhaA.H272F. Thus, the bond formed between carboxytetramethylrhodamine-C10H21NO2—Cl and cysteine or glutamate at residue 106 in a mutant DhaA is stable relative to the bond formed between carboxytetramethylrhodamine-C10H21NO2—Cl and DhaA.WT. Other substitutions at position 106 alone or in combination with substitutions at other residues in DhaA may yield similar results. Further, certain substitutions at position 106 alone or in combination with substitutions at other residues in DhaA may result in a mutant DhaA that forms a bond with only certain substrates.

[6] = MagneGST-based labeling assay of DhaA mutants, biotin substrate; type: biochemical
From the text: An automated MagneGST™-based assay was used to screen the DhaA mutant protein libraries. […] The hits identified by the initial primary screen were located in the master plates, consolidated, re-grown and reanalyzed using the MagneGST™ assay.
In order to distinguish these recombined protein mutants from the mutants identified in round one of screening (first generation), they are referred to as “second generation” DhaA mutants.

T1 sequence (P42345 2012-2144 limits assumed): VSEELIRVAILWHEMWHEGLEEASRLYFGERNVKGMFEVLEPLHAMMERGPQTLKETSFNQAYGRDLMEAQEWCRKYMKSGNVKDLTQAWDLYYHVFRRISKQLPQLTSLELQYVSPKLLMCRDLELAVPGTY
T1 sequence (P62942 whole entry, the tested form may be a part): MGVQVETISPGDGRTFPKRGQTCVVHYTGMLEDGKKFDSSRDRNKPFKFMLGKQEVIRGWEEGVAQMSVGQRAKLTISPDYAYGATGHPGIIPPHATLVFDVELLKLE

Molecule | binding to carboxytetramethylrhodamine-C10H21NO2—Cl [5] | improvement over the parental clones using the biotin-PEG4-14-Cl substrate [6] | also measured
B1 |  |  | second order rate constant for carboxytetramethylrhodamine-C10H21NO2—Cl labeling [1]: 500000 M⁻¹ s⁻¹; second order rate constant with carboxytetramethylrhodamine-C10H21NO2—Cl [2]: 2.2e+06 M⁻¹ s⁻¹; TMR labeling in CHO cells (CHO cells): labeled irrespective of rapamycin addition; carboxyfluorescein-C10H21NO2—Cl labeling rate slower/lower than carboxytetramethylrhodamine-C10H21NO2—Cl labeling rate [3]: 100 fold; TMR labeling [4]: labeled
B2 | bound |  | 
B3 | bound |  | 
B4 | bound |  | 
B5 | bound |  | fold more protein required in the reaction to obtain measurable rates ([2]; relative to DhaA.H272F H11YL): ~420 fold
B6 |  | significantly improved | 
B7 |  | significantly improved | 
B8 |  | significantly improved | 
